Patent US20060078537A1

Target: human CCR5 (human) (UniProt P51681)
Test: cell-based or functional assay

Sequence of human CCR5 (human) (P51681 whole entry): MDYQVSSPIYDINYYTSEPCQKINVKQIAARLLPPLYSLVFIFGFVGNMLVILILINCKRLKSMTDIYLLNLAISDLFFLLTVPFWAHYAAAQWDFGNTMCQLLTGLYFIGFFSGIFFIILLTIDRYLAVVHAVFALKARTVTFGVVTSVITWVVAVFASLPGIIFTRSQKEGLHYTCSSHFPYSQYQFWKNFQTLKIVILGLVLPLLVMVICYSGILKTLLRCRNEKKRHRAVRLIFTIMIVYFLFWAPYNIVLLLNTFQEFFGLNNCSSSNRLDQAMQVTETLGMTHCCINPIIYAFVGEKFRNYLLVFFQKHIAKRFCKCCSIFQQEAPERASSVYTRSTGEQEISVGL

decrease of cell surface CCR5 on CHO cells expressing CCR5 (FACS, 30 minutes at 37° C.) at 5 µg/ml MC-1: 50%
B1: MC-1 anti-CCR5 monoclonal antibody (antibody, from another filing, V domains shown)
VH: QVQLQQPGAGRVRPGASVKLSCKASGYSFTSYWMNWVKQRPGQGLEWIGMIHPSDSETRLNQKFNDRATLTVDKYSSTAYIQLSSPTSEDSAVYYCARGEYYYGIFDYWGQGTTVTVSS
VL: DIQLTQSPASLSASVGETVTITCRASENIYSYLAWYQQKQGKSPQLLVYNAKTLTEGVPSRFSGSGSGTQFSLKINSLQPEDFGNYFCQHHYDTPRTFGGGTKLEIK
